24 sequences from the supplement of paper PMC10899765 can be followed below.

What all share (conditions): 20 nM; 72 h
For series [1], the system named is MCF10A. The series can be described thus: percent viability (nuclei count relative to siNT); higher = more viable cells. On the procedure:
(§1)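 After 72 h, cells were fixed and stained with Hoechst and anti-fibrillarin, and nucleoli per nucleus were counted with CellProfiler. Values are plate-adjusted percent effect for the one-nucleolus and 5+ nucleoli phenotypes, normalised to siNT (0%) and to the positive controls siNOL11 or siKIF11 (100%), as the mean of biological triplicates. Percent viability is the nuclei count relative to siNT.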

In series [2] the test system is MCF10A. The series can be described thus: 5+ nucleoli phenotype percent effect (relative to siNT 0% and siKIF11 100%); higher = more cells with five or more nucleoli. On the procedure: as §1
Series [3] concerns MCF10A. Kind of series: one-nucleolus phenotype percent effect (relative to siNT 0% and siNOL11 100%); higher = more cells with one nucleolus (ribosome biogenesis inhibition). The method, then: as §1

Regarding UCAAAAUCAGGAGUCGGGGCUU [hsa-miR-8063], the percent viability in the series on MCF10A [1] was 81.3%. The “5+ nucleoli phenotype percent effect” value in the series with MCF10A [2] was determined as 18.2%. Besides, the “one-nucleolus phenotype percent effect” value with MCF10A [3] was -23.1%.

Consider “UCAGUCACAUAUCUAGUGUCUA [hsa-miR-4704-3p]”, for which, in the series on MCF10A [1], the percent viability was determined as 54.4%. Also, the “5+ nucleoli phenotype percent effect” value with MCF10A [2] came out at 10.1%. In addition, the “one-nucleolus phenotype percent effect” value in the series on MCF10A [3] came out at 5.92%.

On to AUCCCCAGAUACAAUGGACAA [hsa-miR-2355-5p], for which the percent viability in the series on MCF10A [1] turned out to be 68.5%. For the same sequence, the “5+ nucleoli phenotype percent effect” value with MCF10A [2] is -14.8%. For the same sequence, the “one-nucleolus phenotype percent effect” value with MCF10A [3] worked out at 1.32%.

Regarding AGAGCUCACAGCUGUCCUUCUCUA [hsa-miR-3670], in the series on MCF10A [1], the percent viability stood at 25.7%. The “5+ nucleoli phenotype percent effect” value in the series with MCF10A [2] was -9.38%. In addition, the “one-nucleolus phenotype percent effect” value in the series with MCF10A [3] was found to be 17.6%.

Turning to UCCCCUCCACUUUCCUCCUAG [hsa-miR-6887-3p], the percent viability in the series with MCF10A [1] worked out at 33.5%. Also, in the series with MCF10A [2], the “5+ nucleoli phenotype percent effect” value was -13.1%. For the same sequence, the “one-nucleolus phenotype percent effect” value in the series with MCF10A [3] is -0.315%.

Regarding “UGUCUUACUCCCUCAGGCACAU [hsa-miR-550a-3p]”, the percent viability in the series on MCF10A [1] amounted to 60.2%. Besides, the “5+ nucleoli phenotype percent effect” value with MCF10A [2] was -24%. For the same sequence, the “one-nucleolus phenotype percent effect” value in the series on MCF10A [3] worked out at 15.4%.

For UGCCUAGGCUGAGACUGCAGUG [hsa-miR-3135a], the percent viability in the series on MCF10A [1] was 25.7%. Further, the “5+ nucleoli phenotype percent effect” value in the series with MCF10A [2] turned out to be 1.84%. Also, the “one-nucleolus phenotype percent effect” value in the series with MCF10A [3] was 2.6%.

As to “AGAGUUGAGUCUGGACGUCCCG [hsa-miR-219-1-3p]”, the percent viability in the series with MCF10A [1] turned out to be 88.9%. The “5+ nucleoli phenotype percent effect” value in the series with MCF10A [2] amounted to 30.8%. For the same sequence, the “one-nucleolus phenotype percent effect” value in the series with MCF10A [3] was -25%.

Consider AAAAGUAAUUGCGGUCUUU [hsa-miR-548ap-5p], for which the percent viability in the series on MCF10A [1] was 121%. The “5+ nucleoli phenotype percent effect” value in the series on MCF10A [2] is 39.1%. In addition, in the series with MCF10A [3], the “one-nucleolus phenotype percent effect” value is -19%.

Consider GUGUUCUCUGAUGGACAG [hsa-miR-4273], for which the percent viability in the series with MCF10A [1] was determined as 49.3%. For the same sequence, in the series with MCF10A [2], the “5+ nucleoli phenotype percent effect” value was determined as 10.3%. Also, in the series with MCF10A [3], the “one-nucleolus phenotype percent effect” value was -6.59%.

As to “AAUAGGCCACGGAUCUGGGCAA [hsa-miR-1295b-3p]”, in the series on MCF10A [1], the percent viability came out at 13.8%. Moreover, the “5+ nucleoli phenotype percent effect” value in the series on MCF10A [2] turned out to be 4.51%. In addition, the “one-nucleolus phenotype percent effect” value with MCF10A [3] was determined as 28.6%.

UACCCAUUGCAUAUCGGAGUUG [hsa-miR-660-5p]: the percent viability in the series with MCF10A [1] was 30%. Also, the “5+ nucleoli phenotype percent effect” value in the series on MCF10A [2] is -38.8%. Moreover, in the series on MCF10A [3], the “one-nucleolus phenotype percent effect” value amounted to 44.9%.

Take ACUCAAAAUGGGGGCGCUUUCC [hsa-miR-373-5p]: the percent viability with MCF10A [1] is 83.7%. In addition, the “5+ nucleoli phenotype percent effect” value in the series with MCF10A [2] worked out at 34.3%. The “one-nucleolus phenotype percent effect” value in the series with MCF10A [3] is -11.8%.

Turning to CAGGACUUGACGGCUGCAACU [hsa-miR-8083], the percent viability in the series with MCF10A [1] turned out to be 71%. Also, the “5+ nucleoli phenotype percent effect” value in the series on MCF10A [2] stood at 22.5%. The “one-nucleolus phenotype percent effect” value in the series with MCF10A [3] is -1.33%.

With UGCUAUGCCAACAUAUUGCCAU [hsa-miR-31-3p], the percent viability in the series with MCF10A [1] amounted to 34.2%. For the same sequence, in the series with MCF10A [2], the “5+ nucleoli phenotype percent effect” value is -33.1%. Also, the “one-nucleolus phenotype percent effect” value in the series with MCF10A [3] turned out to be 27.9%.

As for AGGGCAUAGGAGAGGGUUGAUAU [hsa-miR-3945], the percent viability with MCF10A [1] turned out to be 27.2%. The “5+ nucleoli phenotype percent effect” value in the series on MCF10A [2] came to 34.8%. In addition, the “one-nucleolus phenotype percent effect” value in the series on MCF10A [3] was -1.06%.

Take “UAAGUGCUUCCAUGUUUUGGUGA [hsa-miR-302a-3p]”: the percent viability with MCF10A [1] was 78.9%. In addition, the “5+ nucleoli phenotype percent effect” value in the series with MCF10A [2] stood at 72.3%. For the same sequence, the “one-nucleolus phenotype percent effect” value in the series with MCF10A [3] is -15.9%.

As to “AUUUCCCUGCCAUUCCCUUGGC [hsa-miR-4446-5p]”, the percent viability with MCF10A [1] came to 18.4%. The “5+ nucleoli phenotype percent effect” value in the series with MCF10A [2] is -36%. The “one-nucleolus phenotype percent effect” value with MCF10A [3] was 28.2%.

Regarding UCAGCUCCUCUCUACCCACAG [hsa-miR-6736-3p], the percent viability in the series on MCF10A [1] turned out to be 37.4%. The “5+ nucleoli phenotype percent effect” value in the series on MCF10A [2] was -12.2%. For the same sequence, in the series on MCF10A [3], the “one-nucleolus phenotype percent effect” value came out at 8.25%.

As for “UUCCUGGGCUUCUCCUCUGUAG [hsa-miR-6783-3p]”, the percent viability in the series on MCF10A [1] was 88.9%. Also, the “5+ nucleoli phenotype percent effect” value with MCF10A [2] was determined as 7.93%. The “one-nucleolus phenotype percent effect” value in the series with MCF10A [3] is -1.45%.

In the case of CCCUGGGCCUCUGCUCCCCAG [hsa-miR-939-3p], the percent viability with MCF10A [1] worked out at 31.6%. The “5+ nucleoli phenotype percent effect” value in the series with MCF10A [2] is -13%. Further, the “one-nucleolus phenotype percent effect” value in the series with MCF10A [3] was 17.1%.

As to AAUGGCGCCACUAGGGUUGUG [hsa-miR-652-3p], the percent viability in the series with MCF10A [1] turned out to be 58.1%. Also, the “5+ nucleoli phenotype percent effect” value in the series on MCF10A [2] came out at 4.15%. Further, the “one-nucleolus phenotype percent effect” value with MCF10A [3] amounted to 7.39%.

CAUCUUCCAGUACAGUGUUGGA [hsa-miR-141-5p]: the percent viability with MCF10A [1] is 64.8%. The “5+ nucleoli phenotype percent effect” value with MCF10A [2] is -4.79%. Further, the “one-nucleolus phenotype percent effect” value with MCF10A [3] is -9.13%.

Consider UGGUGGGCCGCAGAACAUGUGC [hsa-miR-654-5p], for which the percent viability in the series on MCF10A [1] is 31.2%. For the same sequence, the “5+ nucleoli phenotype percent effect” value in the series on MCF10A [2] was -8.23%. Also, in the series with MCF10A [3], the “one-nucleolus phenotype percent effect” value was determined as 20.4%.
